{"source": "patent US20140314789", "target": "Flag-tagged calcineurin-defective (ΔCalna) CRTC2 (UniProt Q3U182)", "sequence (Q3U182 whole entry, looked up, stated change not applied)": "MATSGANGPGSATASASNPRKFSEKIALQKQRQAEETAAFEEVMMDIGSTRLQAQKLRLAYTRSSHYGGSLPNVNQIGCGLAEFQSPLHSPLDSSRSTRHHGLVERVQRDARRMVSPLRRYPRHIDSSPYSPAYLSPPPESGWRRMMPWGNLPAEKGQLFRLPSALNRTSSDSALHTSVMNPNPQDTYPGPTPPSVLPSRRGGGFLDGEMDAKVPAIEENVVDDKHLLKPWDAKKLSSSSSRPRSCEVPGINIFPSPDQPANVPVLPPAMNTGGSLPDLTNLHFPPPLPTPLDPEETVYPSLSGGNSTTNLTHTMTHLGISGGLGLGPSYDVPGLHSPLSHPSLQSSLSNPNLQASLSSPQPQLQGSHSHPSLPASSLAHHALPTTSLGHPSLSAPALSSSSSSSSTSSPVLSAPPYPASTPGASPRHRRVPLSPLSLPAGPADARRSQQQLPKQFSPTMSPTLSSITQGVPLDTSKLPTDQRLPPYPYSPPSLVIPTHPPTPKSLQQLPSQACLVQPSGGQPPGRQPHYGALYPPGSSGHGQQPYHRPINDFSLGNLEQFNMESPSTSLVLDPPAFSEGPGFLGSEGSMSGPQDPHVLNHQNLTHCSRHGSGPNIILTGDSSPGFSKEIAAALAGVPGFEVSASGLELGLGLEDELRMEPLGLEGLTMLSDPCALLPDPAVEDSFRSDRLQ", "data": [{"substance": "HA-tagged calcineurin A (Calna)", "values": [{"measurement": "glucagon-dependent dephosphorylation of CRTC2, nuclear translocation, CRE-luc activation", "result": "mutation of both motifs disrupted the glucagon-dependent dephosphorylation of CRTC2 (FIG. 33B) and prevented its nuclear translocation (FIG. 38C), thereby down-regulating CRE-luc activation"}]}]}
